The text below walks through data of publication PMC5562738, “Structural basis for the broad substrate specificity of the human tyrosylprotein sulfotransferase-1” (Scientific Reports, 2017).

Data set [1] concerns the target recombinant human TPST1 (Lys43-Lys341), as crystallised with PAP and C4P5Y5 (human) (UniProt O60507).
Data set [2] deals with the molecule itself. As to the kind of experiment: crystal structure; human TPST1 (2.5 mg/ml) with 2 mM PAP and 1 mM C4P5Y5, sitting-drop vapor diffusion at 20 °C, 0.1 M Tris-HCl pH 8.5; 1.6 Å.
Data set [3] deals with the molecule itself. As to the kind of experiment: crystal structure; human TPST1 (5.0 mg/ml, His tag removed) with 2 mM PAP and 3 mM gastrin peptide, sitting-drop vapor diffusion at 20 °C, crystals soaked 1 d with 30 mM gastrin peptide; 2.3 Å.

Take gastrin peptide: the K m of tyrosine sulfation of the peptide by human TPST1 ([35S]PAPS, TLC, 30 °C, pH 6.0) in data set [1] was found to be 652 µM.

B1: recombinant human TPST1 (Lys43-Lys341), as crystallised with PAP and C4P5Y5 (enzyme, UniProt O60507 43-341, looked up)
chain: KLESTRTTVRTGLDLKANKTFAYHKDMPLIFIGGVPRSGTTLMRAMLDAHPDIRCGEETRVIPRILALKQMWSRSSKEKIRLDEAGVTDEVLDSAMQAFLLEIIVKHGEPAPYLCNKDPFALKSLTYLSRLFPNAKFLLMVRDGRASVHSMISRKVTIAGFDLNSYRDCLTKWNRAIETMYNQCMEVGYKKCMLVHYEQLVLHPERWMRTLLKFLQIPWNHSVLHHEEMIGKAGGVSLSKVERSTDQVIKPVNVGALSKWVGKIPPDVLQDMAVIAPMLAKLGYDPYANPPNYGKPDPK
notes: thrombin site after the His tag (pET15b); Ordered in the crystal: Tyr65-Pro338 and Ala64-Gly336; also called tyrosylprotein sulfotransferase-1; core domain of human TPST1; source: Origami (DE3) cells carrying pGro7 (GroEL, GroES), purified (Ni-NTA, Superdex 200)
Regarding B1, in data set [2], the “stoichiometry N” value stood at 2.

B2: recombinant human TPST1 (Lys43-Lys341), His tag removed, as crystallised with PAP and the gastrin peptide (enzyme, UniProt O60507 43-341, looked up)
chain: KLESTRTTVRTGLDLKANKTFAYHKDMPLIFIGGVPRSGTTLMRAMLDAHPDIRCGEETRVIPRILALKQMWSRSSKEKIRLDEAGVTDEVLDSAMQAFLLEIIVKHGEPAPYLCNKDPFALKSLTYLSRLFPNAKFLLMVRDGRASVHSMISRKVTIAGFDLNSYRDCLTKWNRAIETMYNQCMEVGYKKCMLVHYEQLVLHPERWMRTLLKFLQIPWNHSVLHHEEMIGKAGGVSLSKVERSTDQVIKPVNVGALSKWVGKIPPDVLQDMAVIAPMLAKLGYDPYANPPNYGKPDPK
notes: also called tyrosylprotein sulfotransferase-1; protomer-1A; source: Origami (DE3) cells carrying pGro7 (GroEL, GroES), purified (Ni-NTA, Superdex 200), His tag removed with bovine thrombin; not shown: 6xHis, N-terminal, cleaved
For the molecule B2, the “stoichiometry N” value in data set [3] is 2.
